Numbering of substitutions follows the chain as printed.
Legend:
[1] = system: 4-hydroxyphenylpyruvate dioxygenase (HPPD); experiment: Insensitivity parameter (ON × OFF) and trait fitness (ON × OFF × kcat/KM or × kcat); type: biochemical, Z. mays; parameters: key to ON × OFF / Insensitivity, mesotrione, ON × OFF / Insensitivity, tembotrione, ON × OFF / Insensitivity, topramezone, ON × OFF / Insensitivity, sulcotrione, ON × OFF / Insensitivity, isoxaflutole (DKN), ON × OFF: insensitivity = ON rate ratio × OFF rate ratio (surrogate for KD); details: for ON × OFF × kcat, Value / ON × OFF × kcat, Fold vs wt / ON × OFF, fold vs wt / ON × OFF (parameters with tembotrione): Table 5; for ON × OFF × kcat, Fold vs wt / ON × OFF, fold vs wt: fold vs maize wild type HPPD; for ON × OFF (parameters with tembotrione): insensitivity parameter; for Insensitivity, isoxaflutole (DKN), ON × OFF / Insensitivity, isoxaflutole (DKN), Trait fitness: inhibitor diketonitrile form of isoxaflutole (DKN); for Insensitivity, mesotrione, ON × OFF / Insensitivity, mesotrione, Trait Fitness: inhibitor mesotrione; for Insensitivity, sulcotrione, ON × OFF / Insensitivity, sulcotrione, Trait fitness: inhibitor sulcotrione; for Insensitivity, tembotrione, ON × OFF / Insensitivity, tembotrione, Trait fitness: inhibitor tembotrione; for Insensitivity, topramezone, ON × OFF / Insensitivity, topramezone, Trait Fitness: inhibitor topramezone
In short: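 Calculated, not measured directly: ON rate ratio × OFF rate ratio gives an insensitivity parameter serving as a KD surrogate.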

[2] = system: 4-hydroxyphenylpyruvate dioxygenase (HPPD); experiment: ON rate ratio: HPPD reaction rate with vs without inhibitor in the 70 to 90 second interval; type: biochemical, Z. mays; details: for ON ratio (parameters with tembotrione): Table 5; for Insensitivity, isoxaflutole (DKN), Rate ratio ON: inhibitor diketonitrile form of isoxaflutole (DKN); for Insensitivity, mesotrione, Rate ratio ON: inhibitor mesotrione; for Insensitivity, sulcotrione, Rate ratio ON: inhibitor sulcotrione; for Insensitivity, tembotrione, Rate ratio ON: inhibitor tembotrione; for Insensitivity, topramezone, Rate ratio ON: inhibitor topramezone
In short: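 Time courses of HPPD reactions, 60 or 120 nM enzyme with 100 μM HPP substrate, run with and without 4 μM inhibitor (e.g. mesotrione, tembotrione). Value is the rate with inhibitor over rate without, taken over 70–90 s; higher ratio reflects slower kON.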

[3] = DKN (diketonitrile form of isoxaflutole)
[4] = Table 7, tembotrione, combinatorial variants

B1: Z. mays wt: maize wild-type HPPD, SEQ ID NO:1 (glycine for proline at position 2) (protein)
chain: MGPTPTAAAAGAAVAAASAAEQAAFRLVGHRNFVRFNPRSDRFHTLAFHHVELWCADAASAAGRFSFGLGAPLAARSDLSTGNSAHASLLLRSGSLSFLFTAPYAHGADAATAALPSFSAAAARRFAADHGLAVRAVALRVADAEDAFRASVAAGARPAFGPVDLGRGFRLAEVELYGDVVLRYVSYPDGAAGEPFLPGFEGVASPGAADYGLSRFDHIVGNVPELAPAAAYFAGFTGFHEFAEFTTEDVGTAESGLNSMVLANNSENVLLPLNEPVHGTKRRSQIQTFLDHHGGPGVQHMALASDDVLRTLREMQARSAMGGFEFMAPPTSDYYDGVRRRAGDVLTEAQIKECQELGVLVDRDDQGVLLQIFTKPVGDRPTLFLEIIQRIGCMEKDEKGQEYQKGGCGGFGKGNFSQLFKSIEDYEKSLEAKQAAAAAAAQGS
modifications: Zea mays
- Insensitivity parameter, ON × OFF [1, 3]: 0.0096
- Insensitivity parameter, ON × OFF ([1]; Mesotrione, Table 6): 0.0437
- Insensitivity parameter, ON × OFF ([1]; Sulcotrione): 0.0872
- ON × OFF × kcat, Value ([1]; tembotrione): 1.07
- ON × OFF × kcat, Fold vs wt ([1]; tembotrione): 1.00
- ON × OFF, fold vs wt ([1]; tembotrione): 1.00
- ON × OFF (parameters with tembotrione) ([1]; tembotrione): 0.0051
- Insensitivity parameter, ON × OFF ([1]; Tembotrione): 0.0051
- Insensitivity parameter, ON × OFF ([1]; Topramezon): 0.0154
- Insensitivity, isoxaflutole (DKN), ON × OFF [1]: 0.0005
- Insensitivity, isoxaflutole (DKN), Trait fitness [1]: 0.015
- Insensitivity, mesotrione, ON × OFF [1]: 0.062
- Insensitivity, mesotrione, Trait Fitness [1]: 2.1
- Insensitivity, sulcotrione, ON × OFF [1]: 0.042
- Insensitivity, sulcotrione, Trait fitness [1]: 1.45
- Insensitivity, tembotrione, ON × OFF [1]: 0.007
- Insensitivity, tembotrione, Trait fitness [1]: 0.26
- Insensitivity, topramezone, ON × OFF [1]: 0.002
- Insensitivity, topramezone, Trait Fitness [1]: 0.077
- Fitness Fold vs Zm wt ([1]; mesotrione): 1
- fold less sensitive to mesotrione than soybean HPPD ([1]; mesotrione): 40 fold
- Insensitivity parameter, ON × OFF ([1]; mesotrione, Table 2): 0.06
- ON ratio (parameters with tembotrione) ([2]; tembotrione): 0.17
- Insensitivity, isoxaflutole (DKN), Rate ratio ON [2]: 0.08
- Insensitivity, mesotrione, Rate ratio ON [2]: 0.20
- Insensitivity, sulcotrione, Rate ratio ON [2]: 0.30
- Insensitivity, tembotrione, Rate ratio ON [2]: 0.20
- Insensitivity, topramezone, Rate ratio ON [2]: 0.100
- ON rate ratio ([2]; mesotrione): 0.20
- ON rate ratio ([2]; mesotrione, listed as wild type): 0.2

B2: R7-9070: shuffled maize HPPD, Round 7, variant 9070 (SEQ ID NO:2); backbone for saturation mutagenesis (protein)
chain: MGPTPTATAAGAAVAAASAAEQAAFRLVGHRNFVRFNPRSDRFQTLAFHHVELWCADAASAAGRFSFALGVPLAARSDLSTGNSAHASLLLRSGSLSLLFTAPYAHGADAATAALPSFSAAAARRFAADHGLAVRAVALRVADAEDAFRASVAAGARPAFGPVDLGRGFRLAEVELYGDVVLRYVSYPDGAAGEPFLPGFEGVASPGAADYGLSRFDHIVGNVPELAPAAAYMAGFTGFHEFAEFTTEDVGTTESGLNSMALANNSENVLLPLNEPVHGTKRRSQIQTFLDHHGGPGVQHIALASDDVLRTLREMRARSAMGGFEFLPPPLSDYYDGVRRCAGDVLTEAQINECQELGVMVDRDDQGVLLQIFTKPVGDRPTFFLEIIQRIGCMEKDEKGQEYQKGGCGGFGKGNFGQLFKSIEDYEKSLEAKQAAAAATAQGS
modifications: Zea mays variant form created by artificial means.
notes: backbone for saturation mutagenesis
- Insensitivity parameter, ON × OFF [1, 3]: 0.24
- ON × OFF ([1]; Megatable 3, shuffled variants): 0.086
- ON × OFF × kcat ([1]; Megatable 3, shuffled variants): 3.45
- Insensitivity parameter, ON × OFF ([1]; Mesotrione, Table 6): 0.45
- Insensitivity parameter, ON × OFF ([1]; Sulcotrione): 0.56
- ON × OFF × kcat, Value ([1]; tembotrione): 5.25
- ON × OFF × kcat, Fold vs wt ([1]; tembotrione): 4.90
- ON × OFF, fold vs wt ([1]; tembotrione): 30.0
- ON × OFF (parameters with tembotrione) ([1]; tembotrione): 0.15
- ON × OFF [1, 4]: 0.086
- ON × OFF × kcat [1, 4]: 3.45
- Insensitivity parameter, ON × OFF ([1]; Tembotrione): 0.19
- Insensitivity parameter, ON × OFF ([1]; Topramezon): 0.26
- Insensitivity, isoxaflutole (DKN), ON × OFF [1]: 0.11
- Insensitivity, isoxaflutole (DKN), Trait fitness [1]: 3.30
- Insensitivity, mesotrione, ON × OFF [1]: 0.59
- Insensitivity, mesotrione, Trait Fitness [1]: 18.1
- Insensitivity, sulcotrione, ON × OFF [1]: 0.38
- Insensitivity, sulcotrione, Trait fitness [1]: 11.8
- Insensitivity, tembotrione, ON × OFF [1]: 0.17
- Insensitivity, tembotrione, Trait fitness [1]: 5.36
- Insensitivity, topramezone, ON × OFF [1]: 0.13
- Insensitivity, topramezone, Trait Fitness [1]: 3.99
- Fitness Fold vs Zm wt ([1]; mesotrione): 7.9
- Insensitivity parameter, ON × OFF ([1]; mesotrione, Table 2): 0.56
- Insensitivity ON × OFF, Fold vs wt ([1]; mesotrione, vs maize wild type): 9.11
- ON ratio (parameters with tembotrione) ([2]; tembotrione): 0.74
- ON rate ratio [2, 4]: 0.744
- Insensitivity, isoxaflutole (DKN), Rate ratio ON [2]: 0.82
- Insensitivity, mesotrione, Rate ratio ON [2]: 0.66
- Insensitivity, sulcotrione, Rate ratio ON [2]: 0.81
- Insensitivity, tembotrione, Rate ratio ON [2]: 0.80
- Insensitivity, topramezone, Rate ratio ON [2]: 0.79
- ON rate ratio ([2]; mesotrione): 0.67

B3: P056028-G-01 (protein)
chain: B2 chain with Y211L, S214N, R340K, Q366E, A432K, Q434R
modifications: Zea mays variant form created by artificial means.
- ON × OFF ([1]; Megatable 3, shuffled variants): 0.238
- ON × OFF × kcat ([1]; Megatable 3, shuffled variants): 7.65
- ON × OFF [1, 4]: 0.238
- ON × OFF × kcat [1, 4]: 7.65
- Insensitivity, isoxaflutole (DKN), ON × OFF [1]: 0.32
- Insensitivity, isoxaflutole (DKN), Trait fitness [1]: 6.55
- Insensitivity, mesotrione, ON × OFF [1]: 0.71
- Insensitivity, mesotrione, Trait Fitness [1]: 14.6
- Insensitivity, sulcotrione, ON × OFF [1]: 0.89
- Insensitivity, sulcotrione, Trait fitness [1]: 18.2
- Insensitivity, tembotrione, ON × OFF [1]: 0.36
- Insensitivity, tembotrione, Trait fitness [1]: 7.32
- Insensitivity, topramezone, ON × OFF [1]: 0.46
- Insensitivity, topramezone, Trait Fitness [1]: 9.31
- ON rate ratio [2, 4]: 0.742
- Insensitivity, isoxaflutole (DKN), Rate ratio ON [2]: 0.77
- Insensitivity, mesotrione, Rate ratio ON [2]: 0.71
- Insensitivity, sulcotrione, Rate ratio ON [2]: 0.78
- Insensitivity, tembotrione, Rate ratio ON [2]: 0.77
- Insensitivity, topramezone, Rate ratio ON [2]: 0.80

Source: US11015206B2, “Compositions and methods comprising sequences having hydroxyphenylpyruvate dioxygenase (HPPD) activity” (PIONEER HI-BRED INTERNATIONAL, INC., priority 2014, dated 2021)
